Measurements published in PMC13038412, “Hetero-oligomerization drives structural plasticity of eukaryotic peroxiredoxins” (Nature Chemical Biology, 2026).

Experiments:
[1] = molecular target: roGFP2-AtBAS1B (A. thaliana); assay: native gel or EMSA; clear native PAGE of lysates from Δtsa1Δtsa2 yeast coexpressing a roGFP2-peroxiredoxin fusion with an empty vector or an unfused peroxiredoxin; imaged for GFP fluorescence
[2] = molecular target: roGFP2-LiPrx1 (L. infantum); assay: as above
[3] = molecular target: T1, His6-Tsa2-EPEA (S. cerevisiae); assay: negative-stain EM; 0.02 mg/ml purified sample in 10 mM HEPES/NaOH pH 8, 137 mM NaCl, 2 mM KCl; 2% uranyl acetate; hetero-oligomer: the 0.88 mol/mol fraction
T1 sequence (Q04120 1-196, looked up): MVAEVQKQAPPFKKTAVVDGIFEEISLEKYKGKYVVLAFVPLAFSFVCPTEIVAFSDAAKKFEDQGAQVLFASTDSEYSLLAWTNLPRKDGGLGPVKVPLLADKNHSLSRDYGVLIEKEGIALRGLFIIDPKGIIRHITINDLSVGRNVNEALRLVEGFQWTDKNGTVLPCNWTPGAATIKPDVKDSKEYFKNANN

[4] = molecular target: T1, His6-Tsa2-EPEA (S. cerevisiae); assay: MALDI-TOF MS of disulfide-linked dimers; purified homo-oligomers and three tandem-purified hetero-oligomer fractions in 0.1% TFA, DHAP matrix, linear positive mode; dimers reducible with DTT
[5] = molecular target: the molecule itself; assay: negative-stain EM; 0.02 mg/ml purified sample in 10 mM HEPES/NaOH pH 8, 137 mM NaCl, 2 mM KCl; 2% uranyl acetate; hetero-oligomer: the 0.88 mol/mol fraction
[6] = molecular target: the molecule itself; assay: MALDI-TOF MS of disulfide-linked dimers; purified homo-oligomers and three tandem-purified hetero-oligomer fractions in 0.1% TFA, DHAP matrix, linear positive mode; dimers reducible with DTT
His6-Tsa2 = molecular target: T2, His6-Tsa2 (S. cerevisiae, UniProt Q04120 1-196); assay: pull-down; both genes coexpressed from one pCOLADuet plasmid in E. coli; tandem-affinity purification Ni-NTA then StrepTactin, or vice versa; eluates on reducing SDS-PAGE, western blot (semiquantitative, calibrated with individually purified proteins); conditions: partners not purified
T2 construct: Tsa2, Prx1/AhpC-type peroxiredoxin of Saccharomyces cerevisiae; TSA2 from pET15b/His6-TSA2; calculated mass of His6-Tsa2 23.8 kDa; also called His6-tagged Tsa2; His-Tsa2; source: E. coli SHuffle T7 Express, purified (Ni-NTA) from pET15b; or coexpressed with Strep-Tsa1 / Strep-Tsa1ΔCR from pCOLADuet and tandem purified (Ni-NTA, StrepTactin); not shown: His6, N-terminal, kept
T2 sequence (looked up): T1 sequence (Q04120 1-196, looked up)

[7] = molecular target: the molecule itself; assay: mass photometry; 5 µM purified samples incubated 15 min at 20, 30, 40 or 45 °C, diluted 25x into 10 mM HEPES/NaOH pH 8, 137 mM NaCl, 2 mM KCl; Refeyn OneMP; disulfide-linked oxidation form
[8] = molecular target: the molecule itself; assay: native gel or EMSA; clear native PAGE (3-12%) of yeast lysates, imaged for GFP fluorescence; roGFP2 fusions expressed from the genomic loci; cells untreated or treated with 1 mM H2O2 for the indicated times; lysis with 20 mM NEM
[9] = molecular target: the molecule itself; assay: native gel or EMSA; clear native PAGE of lysates from Δtsa1Δtsa2 yeast coexpressing a roGFP2-peroxiredoxin fusion with an empty vector or an unfused peroxiredoxin; imaged for GFP fluorescence

roGFP2-AtBAS1B (enzyme) was tested, and the stoichiometry N [1] was 10.

For roGFP2-LiPrx1 (enzyme), the stoichiometry N [2] was 10.

His6-Tsa2-EPEA (enzyme) showed a stoichiometry N [3] of 10 and a stoichiometry N [4] of 2.

B1: Strep-Tsa1 (enzyme, S. cerevisiae, UniProt P34760 1-196, looked up)
chain: MVAQVQKQAPTFKKTAVVDGVFDEVSLDKYKGKYVVLAFIPLAFTFVCPTEIIAFSEAAKKFEEQGAQVLFASTDSEYSLLAWTNIPRKEGGLGPINIPLLADTNHSLSRDYGVLIEEEGVALRGLFIIDPKGVIRHITINDLPVGRNVDEALRLVEAFQWTDKNGTVLPCNWTPGAATIKPTVEDSKEYFEAANK
notes: Tsa1, Prx1/AhpC-type peroxiredoxin of Saccharomyces cerevisiae; TSA1 subcloned from pET15b/His-TSA1; calculated mass of Strep-Tsa1 22.9 kDa; Dimer-decamer equilibrium; also called Strep-tagged Tsa1; Tsa1 homo-oligomer; source: E. coli SHuffle T7 Express, purified (StrepTactin) from pET45b; or coexpressed with His6-Tsa2 / His6-Tsa2-EPEA from pCOLADuet-1 and tandem purified (Ni-NTA, StrepTactin); …
For B1, the “stoichiometry N” value [5] was 10, the “stoichiometry N” value [6] was 2 and the “stoichiometry N” value (His6-Tsa2) was about 1 Strep-Tsa1 per His6-Tsa2.

B2: His6-GFP-TEV-Tsa2 (enzyme, S. cerevisiae, UniProt Q04120 1-196, looked up)
chain: T1 sequence (Q04120 1-196, looked up)
notes: Tsa2 of Saccharomyces cerevisiae, behind His6, GFP and a TEV site; Probably made in E. coli (AhpC contamination was detected); also called Tsa2 with an N-terminal GFP tag; not shown: His6, N-terminal, kept; GFP, N-terminal, kept
B2: binds [7].

B3: roGFP2-Tsa1 (enzyme, S. cerevisiae, UniProt P34760 1-196, looked up)
chain: B1 chain
notes: Tsa1 of Saccharomyces cerevisiae, roGFP2-tagged version replacing TSA1 at its endogenous locus; source: S. cerevisiae, gene integrated at the TSA1 genomic locus under the native promoter, in lysate
For B3, the “stoichiometry N” value [8] was 2.

B4: roGFP2-AtBAS1A (enzyme, A. thaliana, UniProt Q96291 66-266, looked up)
chain: KAQADDLPLVGNKAPDFEAEAVFDQEFIKVKLSDYIGKKYVILFFYPLDFTFVCPTEITAFSDRHSEFEKLNTEVLGVSVDSVFSHLAWVQTDRKSGGLGDLNYPLISDVTKSISKSFGVLIHDQGIALRGLFIIDKEGVIQHSTINNLGIGRSVDETMRTLQALQYIQENPDEVCPAGWKPGEKSMKPDPKLSKEYFSAI
notes: AtBAS1A, Prx1/AhpC-type peroxiredoxin of the chloroplast stroma of Arabidopsis thaliana; source: Δtsa1Δtsa2 yeast, expressed from a plasmid, in lysate
B4 was tested, and the “stoichiometry N” value [9] was 2.
